The target in experiment [1] is chimeric transactivator λR-GyrB-NFκB (wild type λ repressor N-terminal domain) (bacteriophage λ; Escherichia coli). Description: cell-based or functional assay.
In experiment [2] the target is chimeric transactivator λR-GyrB-NFκB with λ repressor mutation S93G (mutant clone 25) (bacteriophage λ; Escherichia coli). As to the kind of experiment: cell-based or functional assay.

From patent US7838501 come the findings set out here.

In turn, “chimeric transactivator λR-GyrB-NFκB (wild type λ repressor N-terminal domain)” registered an inducibility of luciferase activity, 5 nM coumermycin 40 hr, transient transfection of 293A cells in experiment [1] of 50 fold.

With “chimeric transactivator λR-GyrB-NFκB with λ repressor mutation S93G (mutant clone 25)”, in experiment [2], the Activation factor, clone 5 was 5100 fold; the Activation factor, clone 8 came out at 1500 fold; the Activation factor, clone 10 is 3200 fold; the Activation factor, clone 18 came to 5800 fold. In experiment [2], this substance displayed an Activation factor, clone 23 of 14000 fold; an Activation factor, clone 28 of 5100 fold; an Activation factor, clone 34 of 5800 fold; an Activation factor, clone 44 of 13000 fold. Further, in experiment [2], the Activation factor, clone 45 was 1600 fold; the Activation factor, clone 47 is 2100 fold; the Luciferase Activity, With Coum (5 nM), clone 5 (Arbitrary Light Units/µg protein) worked out at 47500; the Luciferase Activity, With Coum (5 nM), clone 8 (Arbitrary Light Units/µg protein) amounted to 52400. In experiment [2], this substance registered a Luciferase Activity, With Coum (5 nM), clone 10 (Arbitrary Light Units/µg protein) of 1590; a Luciferase Activity, With Coum (5 nM), clone 18 (Arbitrary Light Units/µg protein) of 7450; a Luciferase Activity, With Coum (5 nM), clone 23 (Arbitrary Light Units/µg protein) of 8240; a Luciferase Activity, With Coum (5 nM), clone 28 (Arbitrary Light Units/µg protein) of 12300. In experiment [2], this substance returned a Luciferase Activity, With Coum (5 nM), clone 34 (Arbitrary Light Units/µg protein) of 47000; a Luciferase Activity, With Coum (5 nM), clone 44 (Arbitrary Light Units/µg protein) of 30200; a Luciferase Activity, With Coum (5 nM), clone 45 (Arbitrary Light Units/µg protein) of 1910; a Luciferase Activity, With Coum (5 nM), clone 47 (Arbitrary Light Units/µg protein) of 8530. In experiment [2], this substance showed a Luciferase Activity, Without Coum, clone 5 (Arbitrary Light Units/µg protein) of 9.4; a Luciferase Activity, Without Coum, clone 8 (Arbitrary Light Units/µg protein) of 35.8; a Luciferase Activity, Without Coum, clone 10 (Arbitrary Light Units/µg protein) of 0.5; a Luciferase Activity, Without Coum, clone 18 (Arbitrary Light Units/µg protein) of 1.3. In experiment [2], this substance registered a Luciferase Activity, Without Coum, clone 23 (Arbitrary Light Units/µg protein) of 0.6; a Luciferase Activity, Without Coum, clone 28 (Arbitrary Light Units/µg protein) of 2.4; a Luciferase Activity, Without Coum, clone 34 (Arbitrary Light Units/µg protein) of 8.1; a Luciferase Activity, Without Coum, clone 44 (Arbitrary Light Units/µg protein) of 2.4. For the same substance, in experiment [2], the Luciferase Activity, Without Coum, clone 45 (Arbitrary Light Units/µg protein) was 1.2; the Luciferase Activity, Without Coum, clone 47 (Arbitrary Light Units/µg protein) stood at 4.1; the coumermycin concentration of maximal induction of luciferase, stable clone S93G-5, 40 hr is 2.5 to 5 nM; the induction of luciferase activity, 5 nM coumermycin 40 hr, 293A cells with stable pLuc came to 1460 fold. In addition, in experiment [2], the lowest coumermycin concentration with apparent induction of luciferase expression, stable clone S93G-5, 40 hr was determined as 0.5 nM and the suppression of coumermycin-induced (5 nM) luciferase expression by 5 µM novobiocin, 40 hr was > 98%.
